Experiments:
[1] = target: TdT (murine terminal deoxynucleotidyl transferase, single cysteine at position 182, conjugated to dNTP via amino acid ester linker) (Mus musculus) (UniProt P09838); conditions: hydroxymethyl scar on 3'-terminal T base; dTTP ester-linker conjugate; same yield as natural unscarred primer
[2] = target: TdT (murine terminal deoxynucleotidyl transferase, single cysteine at position 182, conjugated to dNTP via amino acid ester linker) (Mus musculus) (UniProt P09838); test: EMSA; conditions: Linker 1 or 2 dTTP conjugate, 60 s; covalent primer-extension complex on SDS-PAGE gel shift

Sequence of TdT (murine terminal deoxynucleotidyl transferase, single cysteine at position 182, conjugated to dNTP via amino acid ester linker) (Mus musculus) (P09838 other isoform, or with tags, fused parts or gaps): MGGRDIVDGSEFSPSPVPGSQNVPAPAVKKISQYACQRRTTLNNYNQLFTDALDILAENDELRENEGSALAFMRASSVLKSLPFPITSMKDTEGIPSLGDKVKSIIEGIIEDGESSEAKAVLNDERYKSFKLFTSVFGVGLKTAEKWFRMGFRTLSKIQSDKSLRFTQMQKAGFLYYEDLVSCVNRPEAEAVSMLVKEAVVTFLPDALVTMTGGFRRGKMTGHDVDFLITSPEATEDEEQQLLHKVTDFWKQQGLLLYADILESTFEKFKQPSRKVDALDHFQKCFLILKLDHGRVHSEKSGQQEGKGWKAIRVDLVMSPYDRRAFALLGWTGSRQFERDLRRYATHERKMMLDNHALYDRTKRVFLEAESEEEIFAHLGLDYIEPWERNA

primer with 3'-terminal hydroxymethyl-scarred dT
activity (% extension in 1 s) [1]: 35

ssDNA primer
activity [2]: > 95 % extension
